Source: the nanobody polyreactivity screen of Harvey et al. (2022)

experiment: yeast display, Sf9 membrane polyspecificity reagent, FACS + sequencing; frameworks hold sequencing errors
Procedure, shortened: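 Sorting gates, low and high (top ~1%), were placed on anti-HA fluorescence to track expression and on streptavidin fluorescence to track reagent binding. A clone's polyreactivity label is taken from the gate it came out of. The reagent was 10% biotinylated, detergent-solubilized Sf9 membrane, applied for 1 hour at 4 °C to galactose-induced yeast display cells.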

Sequence | polyreactivity (PSR sort gate)
QVQHVESGGGLVQAGGSLRLSCAASGRTFQYNTMGWYRQAPGKERELVAAISWGGGSTYYADSVKGRFTISRDNAKNTVYLQMNSLKPEDTAVYYCAATHYRGKGYYYWGQGTQLTVSS | low polyreactivity
QVQHVESGGGLVQAGGSLRLSCAASGRTFRANTMGWYRQAPGKERELVASIRGNGGTTYYADSVKGRFTISRDNAKNTVYLQMNSLKPEDTAVYYCAAGLYYIRWSRRYEYWGQGTQVTVSS | high polyreactivity
QVQHVESGGGLVQAGGSLRLSCAASGRTFVRYAMGWSRPAPGKERELVAAISRSGVGTYYADSVKGRFTISRDNAKKTVYLQMNSLKPEDTAVYYCNALPGTQYNYWGQGTQVTVSS | high polyreactivity
QVQHVESGGGLVQAGGSLRLSCAASGRTFYLNAMGWSRQAPGKARELVATISYTGDTTYYADSVKGRFTISRDNAKNTVYLQMNSLKPEDTAVYYCAKDYSLTQQRHAAYIVGSVDYWGQGTQVTVSS | high polyreactivity
QVQHVESGGGLVQAGGSLRLSCAASGRTFYNYAKGWYRQAPGKERELVAGITSCGGSTYYADSVKGRFTISRDNAKNTVYLQMNSLKPEDTAVYYCARVWPSQKHYYWGQGTQVTVSS | high polyreactivity
QVQHVESGGGLVQAGGSLRLSCAASGRTFYRYAMGWYRQAPGKERELVAAISGSGTSTSYADSVKGRFTISRDNAKNSVYLQMNSLKPEDTAVYYCAATYYVYYYSRYYFWGQGTQVTVSS | high polyreactivity
QVQHVESGGGLVQAGGSLRLSCAASGRTFYSYAMGWYRQAPGKDRELVAAITSDGGTYYADSVKGRFTISRDNAKNTVYLQMNSLKPDDTAVYYCNTRDLYGYPQVTGYDYWGQGTQVTVSS | low polyreactivity
QVQHVESGGGLVQAGGSLRLSCAASGRTLIYNAMGWYRQAPGKERELVAAITGGGGRTYYADSVKGRFTISRDNAKNTVYLQMNSLKPEDTAVYYCAVAGTVLSHMGYWGQGTQVTVSS | low polyreactivity
QVQHVESGGGLVQAGGSLRLSCAASGRTSIPYAMGRYRQAPGKEWQLVAAISYSVGRTYYADSVKGRFTISRDNAKNTVYLQMNSLKPEDTAVYYCAAEYNGVVRDYDYWGQGTQVTVSS | low polyreactivity
QVQHVESGGGLVQAGGSLRLSCAASGRTVYGYTMGWDRQAPGKERELVAAISYSGDSTYYADSVKGRFTISRDTAKNTVYFPMNSLKPEYTAVYYCAVRRYARFNYHYWGQGPQVTVSS | high polyreactivity
QVQHVESGGGLVQAGGSLRLSCAASGSIFEDYVMGWYRQAPGKERELVADITSGGTTYYADSVKGRFTISRDNAKNTVYLQMNSLKPEDTAVYYCAAEVDWVPFLLDYWGQGTQVTVSS | low polyreactivity
QVQHVESGGGLVQAGGSLRLSCAASGSIFGDNAMGWYRQAPGKERELVAAISSGGPTYADSVKGRFTISRDNAKNTVYLQMNSLKPEDTAVYYCNATDGITPYDLTDIEFDYWGQGTQVTVSS | low polyreactivity
QVQHVESGGGLVQAGGSLRLSCAASGSIFPDNAMGWYRQAPGQERELVAAIDKGTGSTNYADSVTGRFTLSRDNAKNNVYFQMNSLKPEDTAVYYCAKGWLTPRGGAWYDDYWGQGTHVTVSS | low polyreactivity
QVQHVESGGGLVQAGGSLRLSCAASGSIFRRYDLGWSRQAPGKERELVAAISSSGGSTYYADSVKGRFTISRDNAKNTVYLQMNSLKPEDTAVYYCAADIYDDDRSESTEYDYWGQGTQVTVSS | low polyreactivity
QVQHVESGGGLVQAGGSLRLSCAASGSIFRWYAMGWYRQAPGKERELVAGITSGGSTNYADSVKGRFTISRDNAKNTVYLQMNSLKPEDTAVYYCNARRWVGSRYDYWGQGTQVTVSS | high polyreactivity
QVQHVESGGGLVQAGGSLRLSCAASGSIFSAYTMGWYRPAPGKERELVAAISSSGGRTYYADSVKGRFTISRDNAKNTVYLQMNSLKPEDTAVYYCAAGYWWALSSRGYGYWGQGTQVTVSS | high polyreactivity
QVQHVESGGGLVQAGGSLRLSCAASGSIFTGNAMGWYRQAPGKEREFVAAITNGGITNYADSVKGRFTISRDNAKNTVYLQMNSLKPEDTAVYYCAADYVDFYSFRRFDYWGQGTQVTVSS | low polyreactivity
QVQHVESGGGLVQAGGSLRLSCAASGSIFTVYAMGWYRQAPGKERELVAGITSGGNTNYADSVKGRFTISRDNAKNTVYLQMNSLKPEDTAVYYCAARIYGYVTYGYWGQGTQVTVSS | low polyreactivity
QVQHVESGGGLVQAGGSLRLSCAASGSIFVPYAMGWYRQAPGKERELVAAISSRGGRTYYADSVKGRFTISRDNAKNTVYLQMISLKPEDTAVYYCNKTAGSHIPRLEYWGQGTQVTVSS | low polyreactivity
QVQHVESGGGLVQAGGSLRLSCAASGSIFWDNAMGWYRQAPGKERELVAAITSSGDTTYYADSVKGRFTISRDNAKNTVYLQMNSLKPEDTAVYYCAKVFGPTDYLTGTFKGDYWGQGTQVTVSS | low polyreactivity
QVQHVESGGGLVQAGGSLRLSCAASGSIFWYYAMGWYRKAPVKERELVAAITSSGGRTYYADSVKGRFTISRDNAKNTVYLQMNSLKQEDTAVYYCAARQWWRYDYWGQGTQVTVSS | high polyreactivity
QVQHVESGGGLVQAGGSLRLSCAASGSNFGYVMGWYRQAPGKERELVAAISRSGGSTYYADSVKGRFTISRDNAKNTVYLQMNSLKPEDTAVYYCAARLYSSSYNSEQYYYWGQGTQVTVSS | high polyreactivity

Sequence | polyreactivity (PSR sort gate)
QVQHVESGGGLVQAGGSLRLSCAASGSTFARYGLGWYRQAPGKERELVASLTYTGGRTYADSVKGRFTFSRDNAKNTVYLQMNSLKPEDTAVYYCAARYRLWGQGTQVTVSS | low polyreactivity
QVQHVESGGGLVQAGGSLRLSCAASGSTFDDNVMGWYRQAPGKERELVAAISSSGGSTYYADSVKGRFTISRDNAKNTVYLQMNSLKPEDTAVYYCNAVYFGLWGYYARRSYNYWGQGTQVTASS | low polyreactivity
QVQHVESGGGLVQAGGSLRLSCAASGSTFDYNAMGWYRQAPGKERELVAAISFIGGATDYADCVKGRFTISRDNAKNTVYLLMNSLKPEDSGVYYCAADTTSVKDGTFYSWGQGTQVTVSS | low polyreactivity
QVQHVESGGGLVQAGGSLRLSCAASGSTFGYNPMGSYRQAPGKERELTNYADSVKGRFTISRDNAKNTVYLQMNSLKPEDTAVYYCNAQIDFGDPEKRAWGYDYWGQGTQVTVSS | low polyreactivity
QVQHVESGGGLVQAGGSLRLSCAASGSTFPYYAMGWYRQAPGNERELVAAISNGVSTYYADSVKGRFTISRDNAKNTVYFHMNCLKQVDTAVYYCAGDFWITTRDIVKWWLYDYWGQGTQVTVSS | low polyreactivity
QVQHVESGGGLVQAGGSLRLSCAASGSTFVVYAMGWYRQAPGKERELVAAINWSGGSTYYADSVKGRFTISRDNAKNTVYLQMNSLKPEDTAVYYCSAYGVTYRGDYDYWGQGTQVTVSS | low polyreactivity
QVQHVESGGGLVQAGGSLRLSCAASGSTFYHNAMGWYRQAPGKERELVAAITSGTSTYYADSVKGRFTISRDNAKNTVYLHMNSLKPEDTAVYYCAADSPWGGGYFVLYNYWGQGTQVTVSS | low polyreactivity
QVQHVESGGGLVQAGGSLRLSCAASGSTFYRYAMGWYRQAPGNERELVAAISASGGSTYYADSVKGRFTISRDNAKNTVYLQMNSLKPEDTAVYYCNRDRRYRNDYWGQGTQVTVSS | high polyreactivity
QVQHVESGGGLVQAGGSLRLSCAASGTIFLYNAMGWYRQAPGKERELVAAIRGSDGITFYADSVKGRFTISRDNAKNTVYLQMNSLKPEDTAVYYCAKDTYRSPRHDYGYWGQGTQVTVSS | low polyreactivity
QVQHVESGGGLVQAGGSLRLSCAASGYTFCRYAMGWYRQAPGKERELVAAISQSGGRTYYADSVKGRFTISRDNAKNTVYFQMNSLKPDDTAVYYCATSSTQGDDYWGQGTQVTVSS | high polyreactivity
QVQHVESGGGLVQAGGSLRLSCAASGYTFYIYAMGWYRQAHGKERELVATISSSGGGTYYADSVKGRFTISRDNAKNTVYLQMNSLTPEDTAVYYCNADGWYWQAQGYDYWGQGTQVTVSS | low polyreactivity
QVQHVESGGGLVQAGGSLRLSCAASVIIFLWYAMGRYRQAPGKERELGAAISRSGSSTYYADSVKGRFTISRDNAKNTVYLQMNSLKPEDTAVYYCAAAYYSKRSCRFDYWGQGTQVTVSS | high polyreactivity
QVQHVESGGGLVQAGGSLRLSCAASVSIFGWKAMGWYRKAPGKERQLVAVITCAGSTNYADSVKGRFTISRDNAKNTVYLQMNSLKPEDTAVYYCAAENLGQGGNFAYFGYYYWGQGTQVTVSS | low polyreactivity
QVQHVESGGGLVQAGGSLRLSCAAYGRTLDVNAMGWYRQAPGKERELVAAIDWGVGTTYYADSVKGRFTISRDNAKNTVYLQMNSLKPEDTAVYYCAVEVYYSVYGYPVQYYYWGQGTQVTVSS | high polyreactivity
QVQHVESGGGLVQAGGSLRLSCASSGRIFPTNAMGWSRQAPGKDRELVASITRSGSTYYADSVKGRFTISRDNAKNTVYLQMNSLKPEDTAVYNCAAYAYIFMDWGGYPYYLYEYEYLGQGTQVTVSS | low polyreactivity
QVQHVESGGGLVQAGGSLRLSCDASGSIFRVYAMGWDRQAPGKERELVAAISRDGSTNYADSVKGRFTISRDNAKNTVYLQMNSLKPEDTAVYYCAAYRTYRGARMNYWGQGTQVTVSS | low polyreactivity
QVQHVESGGGLVQAGGSLRLSGAASGRTFYKNTMGWSRQAPGKERELVAGISQRGGRTYYADSVKGRFTISRDYAKNTVYLQMNSLNPEDTAVYYCAVRSYVHGFDYWGQGTQVTVSS | high polyreactivity
QVQHVESGGGLVQAGGSLRLSSAASGITFPVYAMGWYRPTPGKERELVAAITFSGSNTYYADSVKGRFTISRDNAKNTVYLQMNSLKPEDTAVYYCNAETGGVYFNYYYVGEYYYWGQGTQVTVSS | low polyreactivity
QVQHVESGGGLVQAGGSLRLTCAASGRTFGVYAMGWYRQAPGKEREFVAVISWSDDSTYYADSVKGRFTISRDYAKNTVNLQMNSLKPEDTAVYYCNADDYLVYSGSHYGYWGQGTQVTVSS | low polyreactivity
QVQHVESGGGLVQAGGSLRLTCAATGFTFEKNAMGWYRQAPGKERELVAAISRGGSTYADSVKGRFTISRDNAKNTVYLQMNSLKPEDTAVYYCAADTVYIFSSAINGEFVFWGQGTQVTVSS | low polyreactivity
QVQHVESGGGLVQARGSLRLRCAASGFIFRANAMGWYRHAPGKERELVATISRSGGSTSYADSVKGLFTISRDNAKNTVYLQMNSLKPEDSAVYYCAARKYTLRRKSRYGYWGQGTQVTVSS | high polyreactivity
